Data published in the nanobody polyreactivity screen of Harvey et al. (2022).

Assay: yeast display, Sf9 membrane polyspecificity reagent, FACS + sequencing; frameworks hold sequencing errors
In short: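 Galactose induction of a Saccharomyces cerevisiae BJ5465 synthetic nanobody display library ran 36–48 hours. The cells were then stained for 1 hour at 4 °C with 10% biotinylated, detergent-solubilized Sf9 membrane reagent, pulled down on streptavidin microbeads and FACS-sorted into low and high (top ~1%) gates on expression and reagent-binding fluorescence. Labels for polyreactivity follow the gate of origin.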

| Sequence | polyreactivity (PSR sort gate) |
| --- | --- |
| QVQLVESGGGLVQAGGSLRLSCAASGRTFWNYAMGWYRQAPGKERELVAVIRFSDGSTYYADSVKGRFTISRDNAKNTVYLQMKSLKPEDTAVYYCGAKGQRRWGSGFDYWGQGTQVTVSS | low polyreactivity |
| QVQLVESGGGLVQAGGSLRLSCAASGSIFSINTMGWYRQPPGKERELVAAITRSGSGTYYADSVKGRFTISRDNAKNTVYLQMNSLKPEDTAVYYCAKPAGARLGYWGQGTQVTVSS | low polyreactivity |
| QVQLVESGGGLVQAGGSLRLSCAASGSTFTWNGMGWYRQAPGKERELVATISYGGGRTYYADSVKGRFTISRDNAKNTVYLQMNSLKPEDTAVYYCAADFTRYTQVHALRLSEYWGQGTQVTVSS | low polyreactivity |
| QVQLVESGGGLVQAGGSLRLSCADSGITFVTYAMGWYRQAPGKERELVAAISRSGGRTYYADYVKGRFTISRENAKNTVYLQMNSLKPEDTAVYYCAAERKNKYDYWVQGTQVTVSS | high polyreactivity |
| QVQLVESGGGLVQAGGSLRLTCAASGSIFDYYAMGWYRQAPGKEWELVAAISNGGTTNYADSVKGRFTLSRDNAKNTVYLQMNRLKPEDTAVYYCNADSALYDKAVIYSEYDYWGQGTQVTVSS | low polyreactivity |
| QVQLVESGGGLVQAGGSLRLSCAASGRSFYLYAMGWYRQAPGKERELVASISWNGGSTYYADSVKGRFTISRDNAKNTVYLQMNSLKPEDTAVYYCATDSHRSRLNRPYQLFPAYYYWGQGTQVTVSS | low polyreactivity |
| QVQLVESGGGLVQAGGSLRLSWAASGFTFNRYAMGWYRQAPGKERELVAAISGSGASTYYADSVKGRFTISRDNAKNTVYLQMNSLKPEDTAVYYCATRYSRSYRSRDYYYWGQGTQVTVSS | high polyreactivity |
| QVQLVESGGGLVQAGGSLRLSCAASGNIFHKNAMGWYSQAPGKERELVASISWSGGSTYYADSVKGRFTISRDNAKNTVYLQMKSLKPEDTAVYYCATDAFGYPGNRYALNDYWGQGTQVTVSS | low polyreactivity |
| QVQLVESGGGLVQAGGSLRLSCAASGRIFGQNAMGWYRQAPGKERELVAAITGSGGRTYYADSVKGRFTISRDNAKNTVYLQMNSLKPEYTAVYYCAVSVTSYYRTMDYWGQGTQVTVSS | low polyreactivity |
| QVQLVESGGGLVQAGGSLRLSCAASGITFFYYAMGWYRQAPGKERELVAAINWSGRTYYADSVKGRFTISRDNAKNTVYLQMNSLKPEDTAVYYCAAVTYGPGVSGMDYWGQGTQVTVSS | low polyreactivity |
| QVQLVESGGGLVQAGGSLRLSCAASGSTFYGNAMGWYRQAPGKERELVAAISWSGGSTYYADSVKGRFTISRDNAKNTVYLQMNSLKPEDTAVYYCNKDVLLYYVYGHDYWGQGTQVTVSS | low polyreactivity |
| QVQLLESGGGLVQAGGSLRLSCAASGSIFTGNAMGWYRQAPGKERELVAAISSSGGSTYYADSVKGRFTISRDNAKNNVYLQMNSLKPEDTAVYYCAAYNYFLQYDYWGQGSQVTVSS | low polyreactivity |
| QVQLVESGGGLVQAGGSLRLSCAASGSIFWTYAMGWYRQAPGKEREFVAAITFNYGSTYYADSVKGRFTISRDTAKNTVYLQMNSVKPEDTAVYYCNADTWYYYNFWSYIEYDYWGQGTQVTVSS | high polyreactivity |
| QVQLVESGGGLVQAGGSLRLSSAASGFIFGSNAMGWYRQAPGKERELVAAISRSGGSTYYADSVKGRFTISRDNAKNTVYLQMNSLKPEDTAVYYCASYLYKSRYLPEYDYWGQGTQVTVSS | high polyreactivity |
| QVQLVESGGGLVQAGGSLRLSCAASGSIFIVNVMGWYRQAPGKERELVAGITTNGGITYYADSVKGRFTISRDNAKNTVYLQMNSLKPEDTAVYYCATRSGSPSSIEMDYWGQGTQVTVSS | low polyreactivity |
| QVQLVESGGGLVQAGGSLRLSCAASGFTFYYYAMGWYRQAPGKERELVAAISRSGGSTYYADSVKGRFTISRDNAKNTVYLQMNSLKPEDTAVDYCNKGSRWLRGLDSWGQGTQVTVSS | high polyreactivity |
| QVQLVESGGGLVQAGGSLRLSCAASGSNSVYAMGWYRQAPGKERELVAAITISGGITYYADSVKGRFTIARDNAKNTVYLQMNSLKPEDTAVFYCNADQGSALRWSYDYWGQGTQVTVSS | low polyreactivity |
| QVQLVDSGGGLVQAGGSLRLSCAASGSTFVYNTMGWYSHAPGKERELVAAISYRGSTYYADSVKGRFTISRENAKNTVYLQMNSLKPEDTAVYYCNGPRRQYEYDFWGLGTQVTVSS | high polyreactivity |
| QVQLVESGGGLVQAGGSLRLSCAASGSILQTNVMGWYIQAPGKEREFVAAIRWSTVSTYYADSVKGRFTISRDNAKNTVYLQMNSLKPEDTAVYYCASAKSWYSYKMDYWGQGTQVTVSS | low polyreactivity |
| QDQLVESGGGLVQAGGTLRLSCAATGSTFTNYAMGWYRQAPGKERELVAALTSVGSTYYADSVKGRFTISRDNAKNTVYLQTNSLKAEDTAVYYCNVVYRDQYNYWGQGTQVTVSS | low polyreactivity |
| QVQLVESGGGLVQAGGSLRLSCAASGSTSQINAMGWYRQAPGKERELVAAITWSTGTTYYADSVKGRFTISRDNAKNTVYLQMTSLKPEDTAVYYCAAERAILSSDKQSLWRFDYWGQGTQVTVSS | low polyreactivity |
| QVQLVESGGGLVQAGGSLRLSCAASGRTFRYNAMGWYRQAPGKERELVAAITWSGGSTYYADSVKGRFTISRDNAKNTVYLQMNSLKPEDTAVYYCNKVTWHQGHDYWGQGTQVTVSS | low polyreactivity |

| Sequence | polyreactivity (PSR sort gate) |
| --- | --- |
| QVQLVESGGVLVQAGASLRLSCAASVRIFWLNARGCYRQAPGKEREFVASITYGSDSTYYSDSVNGRFTISRDNAKNTVYLQMNSLIPEDTSVYYCNREGWHYGPYEYWGQVTQVTVSS | low polyreactivity |
| QVQLVESGGGLVQAGGSLRLSCAASGSSFTPNVMGWYRQAPGKERELVAAISQSGGSTFYADSVKGRFTISRDNAKNTVYLQMNSLKPEDTAVYYCATEYYGPVYDLDYDYWGQGTQVTVSS | low polyreactivity |
| QDQLVESVGGLVQAGGSLRLSCAASGRTLVRYVMGWYRQAPGKERELVAAISARTGSTYYADSVKGRFTISRDNAKNTVYLQMNSLKPEDTAVYYCATKFSSYDTRVSYDYWGQGTQVTVSS | low polyreactivity |
| QVQLVESGGGLVQAGGSLRLSCAASGSIFVSYAMGWYRQAPGKERELVAAITRSGGSTYYADSVKGRFTISRDNAKNTVYLQMNSLKPEDTAVYYCAARSYLGAYRRYYWGQGTQVNVSS | high polyreactivity |
| QVQLVESGGGLVQAGGSLRLSCAASGFILTSYAMGWYRPEPGKERELVAAISSRGGRTYYADSVKGRFTISRDNAKNTVYLQMNSLKPEDTAVYYCNAVVYVVGDFDYWGQGTQVTVSS | high polyreactivity |
| QVQLVESGGGLVQARGSLRLSCAASGNTFPSYAMGWYRQAHGKERELVAAITSGGRTYYADSVNGRFTISRDNAKNTVYLQLNSLKPEDTAVYYCAAEWVVRYPWYRYYYWGQGTEVTVSS | high polyreactivity |
| QVQLVESGGGLVQAGGSLRLICAASGFTFSYYAMVWYRQAPGKERELVAVISDRGGITYYADSVKGRFTISRDNAKNTVYLQMNSLKPEDTAVYYCAAQNPRYNYRYYYWGQGTQVTVSS | low polyreactivity |
| QVQLVESGGGLVQAGGSLRLSCAASGNTFSQYAMGWSRQAPGKERELVATISKSSGSTSYADSVKGRFTISRDNAKNTVYLQMNSLKPEDTAVYYCNADSSDVYHHLGVLFFSTWYDYWGQGTQVTVSS | low polyreactivity |
| QVQLVESGGGLVQAGGSLRLTCAASGFIFSKYAMGSYRQAPGKERELVAAISTSGASTYYADSVKGRFTISRDNAKNTVYLQMNSLKPEDTAVYYCNVPRYSPIRNYDYWGQGTQVTVSS | high polyreactivity |
| QVQLVESGGGLVQAGGSLRLSCAASGSIFLYNAMGWYRQAPGKERELVAAISASGGSTYYADSVKGRFTISRDNAKNTVYLQMNSLKPEDTAVYYCAAQYSDYDGFTWPLPPRYDYWGQGTQVTVSS | high polyreactivity |
| QVQLVESGGGLVQAGGSLRLSCAASGRTFRRYAMGWYRQAPGKERELVAAITSGGSTNYADSVKGRFTISRDNAKNNVYLQMNSLKPEDTAVYYCNARYFRGYDYWGQGTQVTVSS | high polyreactivity |
| QVQLVESGGGLVQAGGSLRLSCAASGRTFYSNAMGWYRQAPGKERELVAAITSTDDSTYYADSVKGRFTISRDNAKNTVYLQMNSLKPEDNAVYYCNRDGLIAIRGLWWVEYDYWGQGTQVTVSS | low polyreactivity |
| PVQLVESGGGVVQAGGSLRLSCAASGSIFDENAKGWNRQAPGKERELVAAISSGGSTNYADSVKGRFTITRDNAKNTVYLQMNSLKPEDTAVYYCNNKSRRQYDYWGQGTQVTVSS | low polyreactivity |
| QVQHVESGGGLVQAGGSLRLSCAASGFIFGVYDMGWYRQAPGKERELVAAIDCVGSTYYADSVKGRFTISRDNAKNTVYLQMNSLKPEDTAGYYCNAARSRLYYDKYYYWGQGTQVTVSS | low polyreactivity |
| QVQLVESGGGLVQAGGSLRLSCAASGRIFRRYAMGWYRQAPGKERELVAAISSGGSTYYADSVKGRFTISRDNAKKTVYLQMNSLKPEDTAVYYCNAKVGAYLNYGYWGQGTQVTVSS | low polyreactivity |
| QVQLVESGGGLVQAGGSLRLSCAASGSIFGAYAMGWYRQAPGKERELVAAISRSGSTTYYADSVKGRFTISRDNAKNTVYLQMNSLKPEDTAVYYCAARWTRFLSSSDYYYWGQGTQVTVSS | high polyreactivity |
| QFQLVESGGGLVQAGGSLRLSCAASGRIFLSYAMGWYRQAPGKERELVAAITLSGGSTYYADSVKGRFTISRDNAKNTVSLQMNSLKPEVTGVYYCAADAWFSLRYAPRSYAYGYWGQGTQVTVSS | low polyreactivity |
| QVQLVESGGGLVQAGGSLRLSCAASGFTFSTNAMGWYRQAPGKERELVAAISKSGVSTYYADSVKGRFTISRDNAKNTVYLQMNSLKTEDTAVYYCAADPKIALYKVWRYDYWGQGTQVTVSS | high polyreactivity |
| QVQLVESGGGLVQAGGSLRLSCAASGSTFPKNAKGWYRQAPGKERELVAAINTGGSTYYADSVKGRFTISRDNAKNTVYLQINSLKPEDTAVYYCAARDNYHRDVGHPYDYWGQGTQVTVSS | low polyreactivity |
| QVQLVESGGGVVQAGGSLRLSCAASGRTYGYNAMGWYRPAPGTERELVAAITKSGVSTYYADSVKGRFTISRDNAKNTVYLQMNSLKPEDTAVYYCAVDSYYYSMDYWGQGTQVTVSS | high polyreactivity |
| QVQLVESGGGLVQAGGSLRLSCAASGIIFNSYAMGWYRQAPGKERELVATISGSGGSTYYADSVKGRFTISRDNAKNTVYFQMNSLKPEDTAVYSCAARTGRYYRRYDYWGQGTQVTVSS | high polyreactivity |
